In this series the target is T1, HkCpf1 (Helcococcus kunzii).
T1 chain: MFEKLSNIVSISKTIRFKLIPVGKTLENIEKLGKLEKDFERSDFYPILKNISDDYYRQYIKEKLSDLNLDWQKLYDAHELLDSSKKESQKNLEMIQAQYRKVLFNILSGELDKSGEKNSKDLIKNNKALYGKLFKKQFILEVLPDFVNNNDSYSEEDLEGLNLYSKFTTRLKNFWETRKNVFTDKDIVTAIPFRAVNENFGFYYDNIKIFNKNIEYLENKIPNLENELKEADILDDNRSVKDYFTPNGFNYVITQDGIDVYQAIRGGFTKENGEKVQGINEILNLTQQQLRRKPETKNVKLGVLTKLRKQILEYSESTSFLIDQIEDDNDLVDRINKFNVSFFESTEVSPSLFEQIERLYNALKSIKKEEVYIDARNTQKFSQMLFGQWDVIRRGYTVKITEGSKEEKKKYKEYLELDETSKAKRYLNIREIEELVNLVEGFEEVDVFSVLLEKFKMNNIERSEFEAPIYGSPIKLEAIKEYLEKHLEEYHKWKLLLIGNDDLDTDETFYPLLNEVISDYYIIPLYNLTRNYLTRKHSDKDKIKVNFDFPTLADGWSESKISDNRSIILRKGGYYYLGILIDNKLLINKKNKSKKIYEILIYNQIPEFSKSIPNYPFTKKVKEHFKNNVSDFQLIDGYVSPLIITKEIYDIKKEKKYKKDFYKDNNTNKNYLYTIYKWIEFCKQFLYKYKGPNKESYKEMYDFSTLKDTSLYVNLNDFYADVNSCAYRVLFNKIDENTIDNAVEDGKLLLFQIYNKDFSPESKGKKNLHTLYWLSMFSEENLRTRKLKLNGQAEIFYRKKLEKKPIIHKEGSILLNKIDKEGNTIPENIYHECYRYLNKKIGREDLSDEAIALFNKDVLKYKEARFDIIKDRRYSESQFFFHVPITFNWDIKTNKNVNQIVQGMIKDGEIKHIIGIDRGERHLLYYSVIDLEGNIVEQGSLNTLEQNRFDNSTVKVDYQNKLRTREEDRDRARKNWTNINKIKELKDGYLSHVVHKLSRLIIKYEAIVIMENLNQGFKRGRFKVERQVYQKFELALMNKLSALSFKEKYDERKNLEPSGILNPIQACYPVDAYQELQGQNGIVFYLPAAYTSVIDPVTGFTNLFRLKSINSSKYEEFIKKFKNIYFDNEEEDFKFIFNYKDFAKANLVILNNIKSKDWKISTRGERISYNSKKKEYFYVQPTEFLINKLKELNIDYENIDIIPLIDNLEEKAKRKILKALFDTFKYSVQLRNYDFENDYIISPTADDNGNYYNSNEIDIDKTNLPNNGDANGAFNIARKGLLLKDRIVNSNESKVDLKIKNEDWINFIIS
As to the kind of experiment: cell_activity; PAM TTTC; T7EI. As to conditions: tags: HA (2A-eGFP vector). On the procedure: GFP-positive cells were sorted by FACS, lysed with Buffer L+ 1/100V Protease K (Biotool) at 55° C. for 30 min, inactivated at 95° C. for 5 min, and directly used for PCR detection. Appropriate primers were designed near the Cpf1 targeting site, and the amplified product was purified using DNA Clean & Concentrator™-5 kit (ZYMO Research). 200 ng of purified PCR product was added into 1 uL of NEBuffer2 (NEB) and diluted to 10 uL with ddH₂O. Then, heterodimers were formed by re-annealing according to the previously reported method (Li, W., et al., Simultaneous generation and germline transmission of multiple gene mutations in rat using CRISPR-Cas systems. Nat Biotechnol, 2013. 31(8): p. 684-6). The reannealed product was added with 0.3 uL of T7EI endnucelease and 1/10 V NEBuffer2 (NEB), and digested at 37° C. for 1 h 30 min. Genotype analysis was performed by 3% TAE-Gel electrophoresis. Indels were calculated according to the method reported in the previous article (Cong, L., et al., Multiplex genome engineering using CRISPR/Cas systems. Science, 2013. 339(6121): p. 819-23).
The cells were transfected with Cpf1, crRNA31, and crRNA2 plasmids, and it was confirmed by PCR and T7EI analysis that crRNA31 can increase the editing efficiency of five Cpf1s of ArCpf1, BsCpf1, HkCpf1, PrCpf1, and PxCpf1 at the site MeCP2-4 by two folds (FIG. 13B).

We go through one molecule from US20200149021, “SYSTEM AND METHOD FOR GENOME EDITING” (INSTITUTE OF ZOOLOGY, CHINESE ACADEMY OF SCIENCES, published 2020).

B1: crRNA31 MeCP2 site 4 ; Mouse MeCP2 site 4 (ssRNA ; dsDNA)
RNA: AUUUCUACUAUGGUAGAUGUGUCCAACCUUCAGGCAAGGUG
DNA 1: TTTCGTGTCCAACCTTCAGGCAAGGTG
DNA 2: CACCTTGCCTGAAGGTTGGACACGAAA
Molecule B1 registered an editing efficiency of about 2 fold vs crRNA2.
